According to paper PMC9975078:

Target: Heterogeneous nuclear ribonucleoprotein A2/B1 (HNRNPA2B1), endogenous (human (endogenous in U2OS))
Sequence (P22626 whole entry): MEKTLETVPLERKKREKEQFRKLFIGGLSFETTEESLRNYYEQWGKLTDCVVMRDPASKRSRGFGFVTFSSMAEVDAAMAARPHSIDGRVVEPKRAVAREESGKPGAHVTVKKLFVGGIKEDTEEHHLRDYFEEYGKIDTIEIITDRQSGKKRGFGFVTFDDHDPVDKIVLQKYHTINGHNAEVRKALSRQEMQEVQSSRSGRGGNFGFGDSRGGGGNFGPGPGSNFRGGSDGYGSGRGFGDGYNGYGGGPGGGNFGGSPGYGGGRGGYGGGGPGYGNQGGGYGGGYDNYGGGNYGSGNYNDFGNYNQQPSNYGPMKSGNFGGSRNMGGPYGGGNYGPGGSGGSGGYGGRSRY

Replication Protein A subunit RPA70 (RPA1), endogenous (from UniProt P27694 1-616) (natural protein)
percent of RPA1 bound by HNRNPA2B1: 43%
